Key:
Assay in all cases: ELISA
IL-17 = biological target: IL-17
IL-2 = IL-2 (UniProt P60568)
BSA = BSA (bovine, UniProt P02769)
IL-4 = biological target: T1, IL-4 (UniProt P05112)
T1 chain: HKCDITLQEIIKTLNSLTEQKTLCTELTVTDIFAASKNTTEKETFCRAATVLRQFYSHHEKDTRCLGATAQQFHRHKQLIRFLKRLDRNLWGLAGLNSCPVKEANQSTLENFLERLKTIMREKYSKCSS

Measured: binding result

Sequence of IL-2 (P60568 21-153): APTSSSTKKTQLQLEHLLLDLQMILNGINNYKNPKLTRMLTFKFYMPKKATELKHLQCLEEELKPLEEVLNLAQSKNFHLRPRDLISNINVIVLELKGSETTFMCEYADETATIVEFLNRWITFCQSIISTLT
Sequence of IL-17 (chain, as listed by the source): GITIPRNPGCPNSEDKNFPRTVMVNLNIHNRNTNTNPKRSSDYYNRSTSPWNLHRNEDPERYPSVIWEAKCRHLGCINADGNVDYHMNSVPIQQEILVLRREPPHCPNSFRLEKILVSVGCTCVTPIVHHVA
Sequence of BSA (P02769 25-607): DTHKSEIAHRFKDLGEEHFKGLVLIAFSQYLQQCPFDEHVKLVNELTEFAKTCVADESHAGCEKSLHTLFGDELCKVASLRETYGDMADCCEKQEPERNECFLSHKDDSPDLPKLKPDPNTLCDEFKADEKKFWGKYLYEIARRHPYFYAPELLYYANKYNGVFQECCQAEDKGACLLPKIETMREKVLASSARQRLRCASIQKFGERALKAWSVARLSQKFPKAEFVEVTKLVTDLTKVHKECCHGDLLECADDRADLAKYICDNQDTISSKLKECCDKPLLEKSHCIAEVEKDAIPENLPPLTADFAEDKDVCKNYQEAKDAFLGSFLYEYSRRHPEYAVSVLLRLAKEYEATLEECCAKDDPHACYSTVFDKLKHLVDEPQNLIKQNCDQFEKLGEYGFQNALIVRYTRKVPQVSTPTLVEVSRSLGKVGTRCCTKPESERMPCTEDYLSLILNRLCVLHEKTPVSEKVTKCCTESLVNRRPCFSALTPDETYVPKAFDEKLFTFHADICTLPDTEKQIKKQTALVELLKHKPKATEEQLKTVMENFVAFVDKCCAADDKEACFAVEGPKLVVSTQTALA

B1: BDG33.025 (antibody, V domains shown)
VH: QMQLVESGGGVVQPGRSLRLSCAASGFTFRTYGMHWVRQAPGKGLEWVADIWYDGSNKHYADSVKGRFTITRDNSKNTLNLQMNSLRAEDTAVYYCARAPQWYLVAEPFDLWGQGTMVTVSS
VL: SYVLTQPPSVSVAPGQTARITCGGNLIGSKLVHWYQQKPGQAPVLVVYDDSDRPSLIPERFSGSNSGNTATLTISRVEAGDEADYYCQVWDSSSDGVVFGGGTKLTVL
no binding: IL-17 | IL-2

B2: BDG33.023 (antibody, V domains shown)
VH: QMQLVESGGGVVQPGRSLRLSCAASGFAFRTYGMHWVRQAPGKGLEWVAVIWYDGSNTHYADSVKGRFTITRDNSKNTLNLQMNSLRAEDTAVYYCARAPQWYLSAEAFDLWGQGTMVTVSS
VL: SYVLTQPPSVSVAPGQTARITCGGNLIGSKLVHWYQQKPGQAPVLVVYDDSDRPSRIPERFSGSNSGNTATLTISRVEAGDEADYYCQVWDHSSDHVVFGGGTKLTVL
no binding: all assays above

Source: patent US20260285970 (published 2026)
